Laboratory results: patent US20220411483A1 (Chugai, published 2022)
Substitutions are numbered along the chain they refer to.

B1: IL6R-P616/IL6R-L (antibody, human IgG1, kappa)
heavy: QVQLQESGPGLVKPSETLSLTCAVSGHSISHDHAWSWVRQPPGEGLEWIGFISYSGITNYNPSLQGRVTISRDNSKNTLYLQMNSLRAEDTAVYYCARSLARTTAMDYWGEGTLVTVSSASTKGPSVFPLAPSSKSTSGGTAALGCLVKDYFPEPVTVSWNSGALTSGVHTFPAVLQSSGLYSLSSVVTVPSSSLGTQTYICNVNHKPSNTKVDKKVEPKSCDKTHTCPPCPAPDAAGGDSVFLFPPKPKDTLMISRTPEVTCVVIDVAEEDGEVKFNWYVDGVEVHNAKTKPREEQYNSTYRVVSVLTVLHQDWLNGKEYKCKVSNKALPAPIEKTISKAKGQPREPQVYTLPPSRDELTKNQVSLTCLVKGFYPSDIAVEWESNGQPENNYKTTPPVLDSDGSFFLYSKLTVDKSRWQQGNVFSCSVMHEALHNHYTQKSLSLSP
light: not shown
B2: IL6R-P646/IL6R-L (antibody, human IgG1, kappa)
heavy: B1 heavy with A236L, A237L, G239D, D267N, Y298D, A332R, P398M
light: not shown
B3: IL6R-P664/IL6R-L (antibody, human IgG1, kappa, N297A)
heavy: B1 heavy with A236L, A237L, N299A
light: not shown
B4: IL6R-P638/IL6R-L (antibody, human IgG1, kappa)
heavy: B1 heavy with A236H, A237L, G239D, Y298D, A332R, P398M
light: not shown
B5: IL6R-P651/IL6R-L (antibody, human IgG1, kappa)
heavy: B1 heavy with A236L, A237L, G239D, A269R, Y298D, A332R, P398M
light: not shown
B6: IL6R-P696/IL6R-L (antibody, human IgG1, kappa)
heavy: B1 heavy with A236L, A237L, G239R, A269R
light: not shown
B7: IL6R-P701/IL6R-L (antibody, human IgG1, kappa)
heavy: B1 heavy with A236N, A237L, A269R
light: not shown
B8: IL6R-P624/IL6R-L (antibody, human IgG1, kappa)
heavy: B1 heavy with A236N, A237L
light: not shown
B9: IL6R-P648/IL6R-L (antibody, human IgG1, kappa)
heavy: B1 heavy with A236L, A237L, G239D, D267S, Y298D, A332R, P398M
light: not shown
B10: IL6R-P623/IL6R-L (antibody, human IgG1, kappa)
heavy: B1 heavy with A236H, A237L
light: not shown
B11: IL6R-P633/IL6R-L (antibody, human IgG1, kappa)
heavy: B1 heavy with A236L, A237L, D267S
light: not shown
B12: IL6R-P641/IL6R-L (antibody, human IgG1, kappa)
heavy: B1 heavy with A236R, A237L, G239D, Y298D, A332R, P398M
light: not shown
B13: IL6R-P630/IL6R-L (antibody, human IgG1, kappa)
heavy: B1 heavy with A236L, A237L, D267K
light: not shown
B14: IL6R-P649/IL6R-L (antibody, human IgG1, kappa)
heavy: B1 heavy with A236L, A237L, G239D, D267V, Y298D, A332R, P398M
light: not shown
B15: IL6R-P632/IL6R-L (antibody, human IgG1, kappa)
heavy: B1 heavy with A236L, A237L, D267R
light: not shown
B16: IL6R-P697/IL6R-L (antibody, human IgG1, kappa)
heavy: B1 heavy with A236L, A237L, G239K, A269R
light: not shown
B17: IL6R-P635/IL6R-L (antibody, human IgG1, kappa)
heavy: B1 heavy with A236L, A237L, A269K
light: not shown
B18: IL6R-P647/IL6R-L (antibody, human IgG1, kappa)
heavy: B1 heavy with A236L, A237L, G239D, D267R, Y298D, A332R, P398M
light: not shown
B19: IL6R-P642/IL6R-L (antibody, human IgG1, kappa)
heavy: B1 heavy with A236L, A237L, G238Q, G239D, Y298D, A332R, P398M
light: not shown
B20: IL6R-P617/IL6R-L (antibody, human IgG1, kappa)
heavy: B1 heavy with G239D, Y298D, A332R, P398M
light: not shown
B21: IL6R-P640/IL6R-L (antibody, human IgG1, kappa)
heavy: B1 heavy with A236K, A237L, G239D, Y298D, A332R, P398M
light: not shown
B22: IL6R-P628/IL6R-L (antibody, human IgG1, kappa)
heavy: B1 heavy with A236L, A237L, G239R
light: not shown
B23: IL6R-P643/IL6R-L (antibody, human IgG1, kappa)
heavy: B1 heavy with A236L, A237L, G239R, Y298D, A332R, P398M
light: not shown
B24: IL6R-P634/IL6R-L (antibody, human IgG1, kappa)
heavy: B1 heavy with A236L, A237L, D267V
light: not shown
B25: IL6R-P639/IL6R-L (antibody, human IgG1, kappa)
heavy: B1 heavy with A236N, A237L, G239D, Y298D, A332R, P398M
light: not shown
B26: IL6R-P645/IL6R-L (antibody, human IgG1, kappa)
heavy: B1 heavy with A236L, A237L, G239D, D267K, Y298D, A332R, P398M
light: not shown
B27: IL6R-P644/IL6R-L (antibody, human IgG1, kappa)
heavy: B1 heavy with A236L, A237L, G239K, Y298D, A332R, P398M
light: not shown
B28: IL6R-P700/IL6R-L (antibody, human IgG1, kappa)
heavy: B1 heavy with A237L, A269R
light: not shown
B29: IL6R-P650/IL6R-L (antibody, human IgG1, kappa)
heavy: B1 heavy with A236L, A237L, G239D, A269K, Y298D, A332R, P398M
light: not shown
B30: IL6R-P627/IL6R-L (antibody, human IgG1, kappa)
heavy: B1 heavy with A236L, A237L, G238Q
light: not shown

The binders below were run against T1, FcgRIIb (human, UniProt P31994 43-217) (assay: SPR, amount bound per captured antibody).
T1 construct: extracellular domain; also called FcγRIIb
T1 sequence (looked up): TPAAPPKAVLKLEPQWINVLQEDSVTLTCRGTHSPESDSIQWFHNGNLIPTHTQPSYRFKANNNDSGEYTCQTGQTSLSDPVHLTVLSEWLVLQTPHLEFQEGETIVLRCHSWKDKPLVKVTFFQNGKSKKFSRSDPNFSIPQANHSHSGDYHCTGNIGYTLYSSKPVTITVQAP

In order of rising “Relative FcgRIIb-binding Activity” value:
1. B24  6.5 IL6R-G1d/IL6R-L=100
2. B14  6.9 IL6R-G1d/IL6R-L=100
3. B13  7.1 IL6R-G1d/IL6R-L=100
4. B15  8 IL6R-G1d/IL6R-L=100
5. B26  13.7 IL6R-G1d/IL6R-L=100
6. B18  15.2 IL6R-G1d/IL6R-L=100
7. B16  28.7 IL6R-G1d/IL6R-L=100
8. B3  33.9 IL6R-G1d/IL6R-L=100
9. B28  38.1 IL6R-G1d/IL6R-L=100
10. B7  47.6 IL6R-G1d/IL6R-L=100
11. B11  56.4 IL6R-G1d/IL6R-L=100
12. B17  71.9 IL6R-G1d/IL6R-L=100
13. B6  73.7 IL6R-G1d/IL6R-L=100
14. B1  89.2 IL6R-G1d/IL6R-L=100
15. B30  138 IL6R-G1d/IL6R-L=100
16. B9  152 IL6R-G1d/IL6R-L=100
17. B10  152 IL6R-G1d/IL6R-L=100
18. B29  155 IL6R-G1d/IL6R-L=100
19. B20  158 IL6R-G1d/IL6R-L=100
20. B5  168 IL6R-G1d/IL6R-L=100
21. B12  170 IL6R-G1d/IL6R-L=100
22. B27  171 IL6R-G1d/IL6R-L=100
23. B8  173 IL6R-G1d/IL6R-L=100
24. B2  175 IL6R-G1d/IL6R-L=100
25. B19  175 IL6R-G1d/IL6R-L=100
26. B4  176 IL6R-G1d/IL6R-L=100
27. B22  176 IL6R-G1d/IL6R-L=100
28. B21  178 IL6R-G1d/IL6R-L=100
29. B23  178 IL6R-G1d/IL6R-L=100
30. B25  184 IL6R-G1d/IL6R-L=100

These binders were tested against T2, FcgRIIaR (human, UniProt P12318 34-217) (assay: SPR, amount bound per captured antibody).
T2 construct: extracellular domain; also called FcγRIIa R type; FcγRIIa (R type)
T2 sequence (looked up): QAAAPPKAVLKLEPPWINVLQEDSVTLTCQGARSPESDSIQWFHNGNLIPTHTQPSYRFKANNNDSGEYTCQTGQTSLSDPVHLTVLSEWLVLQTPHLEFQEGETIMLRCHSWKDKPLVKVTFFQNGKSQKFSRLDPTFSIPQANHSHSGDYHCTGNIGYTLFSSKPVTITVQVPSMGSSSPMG

In order of falling “Relative FcgRIIaR-binding Activity” value:
1. B25  109 IL6R-G1d/IL6R-L=100
2. B19  103 IL6R-G1d/IL6R-L=100
3. B4  78.3 IL6R-G1d/IL6R-L=100
4. B5  75.7 IL6R-G1d/IL6R-L=100
5. B21  75.1 IL6R-G1d/IL6R-L=100
6. B2  72.5 IL6R-G1d/IL6R-L=100
7. B8  67.1 IL6R-G1d/IL6R-L=100
8. B12  61.5 IL6R-G1d/IL6R-L=100
9. B23  58.7 IL6R-G1d/IL6R-L=100
10. B20  49.2 IL6R-G1d/IL6R-L=100
11. B30  48.5 IL6R-G1d/IL6R-L=100
12. B22  48.1 IL6R-G1d/IL6R-L=100
13. B10  44.7 IL6R-G1d/IL6R-L=100
14. B1  41.8 IL6R-G1d/IL6R-L=100
15. B29  41.6 IL6R-G1d/IL6R-L=100
16. B9  40.3 IL6R-G1d/IL6R-L=100
17. B27  34 IL6R-G1d/IL6R-L=100
18. B11  15.3 IL6R-G1d/IL6R-L=100
19. B3  10.8 IL6R-G1d/IL6R-L=100
20. B7  7 IL6R-G1d/IL6R-L=100
21. B17  6.4 IL6R-G1d/IL6R-L=100
22. B6  6.1 IL6R-G1d/IL6R-L=100
23. B28  5.8 IL6R-G1d/IL6R-L=100
24. B18  5.6 IL6R-G1d/IL6R-L=100
25. B26  5.2 IL6R-G1d/IL6R-L=100
26. B13  4.1 IL6R-G1d/IL6R-L=100
27. B15  4.1 IL6R-G1d/IL6R-L=100
28. B16  3.6 IL6R-G1d/IL6R-L=100
29. B14  2.9 IL6R-G1d/IL6R-L=100
30. B24  2.8 IL6R-G1d/IL6R-L=100
